Read-outs that look alike come from different tables or passages of the source.
What was measured:
[1] = target: T1, HLA-A2.1 (heavy chain with human beta 2-microglobulin) (human)
[2] = target: T1, HLA-A2.1 (heavy chain with human beta …); remark: listed apart in the source

| Binder | IC50 [1] [nM] | IC50 [2] [nM] | Ratio to Standard [2] |
| --- | --- | --- | --- |
| ATWGQYWQV [G9-154-1A] | 5.2 |  |  |
| FLWGQYWQV [G9-154-1F2L] | 2.6 |  |  |
| KTFGQYWQV [G9-154-3F] | 21 |  |  |
| YTWGQYWQV [G9-154-1Y] | 2.5 |  |  |
| KMWGQYWQV [G9-154-2M] | 6.5 |  |  |
| ALWGQYWQV [G9-154-1A2L] | 2.3 |  |  |
| WTWGQYWQV [G9-154-1W] | 60 |  |  |
| FTWGQYWQV [G9-154-1F] | 1.6 |  |  |
| LLWGQYWQV [G9-154-1L2L] | 1.6 |  |  |
| WLWGQYWQV [G9-154-1W2L] | 2.8 |  |  |
| KIWGQYWQV [G9-154-2I] | 3 |  |  |
| KTYGQYWQV [G9-154-3Y] | 30 |  |  |
| KLWGQYWQV [G9-154-2L] | 2 |  |  |
| YLWGQYWQV [G9-154-1Y2L] | 1.7 |  |  |
| LTWGQYWQV [G9-154-1L] | 3.4 |  |  |
| VLYRYGSFSV [gp100 peptide G10-5 (VLYRYGSFSV)] |  | 13 | 0.38 |
| LLDGTATLRL [gp100 peptide G10-4 (LLDGTATLRL)] |  | 483 | 0.01 |

From patent publication US20040214995A1 (published 2004)
